Data reported in patent publication US20220135687A1 (NANJING LEGEND BIOTECH, published 2022).

B1: 29A8H8C7 (antibody, V domains shown)
VH: DVQLQGSGPGLVKPSQSLSLTCTVTGYSITSDFAWDWIRQFPGNKLEWMGHIRFSGTTSYNPSLKSRISITRDTSKNQFFLQLNSVTSEDTATYYCARSTLITKGFFDYWGQGTTLTVSS
VL: DIVMTQSHKFMSTSVGGRVSITCKASQDVSPAVAWYQQKPGQSPKLLIYWASTRHTGVPDRFTGSGSGTDFTLTISSVQTEDLALYYCQQHYSTPWTFGGGTKLEIK
notes: Mouse mAb from hybridoma culture; also called mouse 29A8H8C7
B2: 27D3D3G2 (antibody, V domains shown)
VH: QVLLQQSGPELVKPGASVRISCKASGYTFTSYYMHWVKQRPGQGLEWIGWIYPGNVNTKYNEKFKGKATLTADKSSSTAYMQLSSLTSEDSAVYFCASYGNYGGWYFDVWGAGTTVTVSS
VL: DIQMTQTTSSLSASLGDRVTISCRASQDIGNYLNWYQQKPDGTVKLLIYYTSRLHSGVPSRFSGSGSGTDYSLTISNLEQEDIATYFCQQGDTFPWTFGGGTKLEIK
notes: Mouse mAb from hybridoma culture
B3: 51F3D2G4 (antibody, V domains shown)
VH: QVQLQQSGAELARPGASVRLSCKASGYIFTGYGISWVKQRTGQGLEWIGEIFPRTANTYFNEKFKGKATLTADKSSSTAYMELRSLTSEDSAVYFCARDYDPYYALDYWGQGTSVTVSS
VL: DIVMTQSHKFMSTSVGDRVTITCKASQDVSTAVDWYQQKPGQSPKLLIYSASYRYTGVPDRFTGSGSGTAFTFTISSEQAEDLAVYYCQQHYSVPFTFGGGTKLEIK
notes: as for B2
B4: 29A8_chimeric (antibody, human IgG1, kappa, N297A, V domains shown)
VH: B1 VH
VL: DIVMTQSHKFMSTSVGGRVSITCKASQDVSPAVAWYQQKPGQSPKLLIYWASTRHTGVPDRFTGSGSGTDFTLTISSVQTEDLALYYCQQHYSTPWTFGGGTKLEIKR
notes: Human IgG1 with effector-less Fc mutations, human kappa; also called chimeric 29A8H8C7
B5: 53C1_VH3-VL1.M1 (antibody, human IgG1, kappa, N297A, V domains shown)
VH: EVQLVQSGAEVKKPGASVKLSCKASGYIFTGYGITWVRQAPGQGLEWIGEIFPRRVNTYYSEKFKGRATLTADTSTSTAYMELRSLRSDDTAVYFCARDYDPYFALDYWGQGTTVTVSS
VL: DIQMTQSPSSLSASVGDRVTITCRASQDVSTAVDWYQQKPGKAPKLLIYSASYRYTGVPDRFSGSGSGTDFTFTISSLQPEDIATYYCQQHYSIPFTFGQGTKLEIKR
notes: Humanized, hIgG1 effector-less Fc, kappa; see recheck on K24R in the .M1 light chain
B6: 53C1_chimeric (antibody, human IgG1, kappa, N297A, V domains shown)
VH: QVQLQQSGNELARPGASVRLSCKASGYIFTGYGITWVRQRPGQGLEWIGEIFPRRVNTYYSEKFKGRATLTADISSSTAYMELRSLTSEDSAVYFCARDYDPYFALDYWGQGTSVTVSS
VL: DIVMTQSHKFMSTSVGDRVSITCKASQDVSTAVDWYQQKPGQSPKLLIYSASYRYTGVPDRFTGSGSGTAFTFTISGEQAEDLAVYYCQQHYSIPFTFGGGTKLEIKR
notes: Human IgG1 with effector-less Fc mutations, human kappa; also called chimeric 53C1F3D4
B7: 29A8_VH1-VL1.M1 (antibody, human IgG1, kappa, N297A)
heavy: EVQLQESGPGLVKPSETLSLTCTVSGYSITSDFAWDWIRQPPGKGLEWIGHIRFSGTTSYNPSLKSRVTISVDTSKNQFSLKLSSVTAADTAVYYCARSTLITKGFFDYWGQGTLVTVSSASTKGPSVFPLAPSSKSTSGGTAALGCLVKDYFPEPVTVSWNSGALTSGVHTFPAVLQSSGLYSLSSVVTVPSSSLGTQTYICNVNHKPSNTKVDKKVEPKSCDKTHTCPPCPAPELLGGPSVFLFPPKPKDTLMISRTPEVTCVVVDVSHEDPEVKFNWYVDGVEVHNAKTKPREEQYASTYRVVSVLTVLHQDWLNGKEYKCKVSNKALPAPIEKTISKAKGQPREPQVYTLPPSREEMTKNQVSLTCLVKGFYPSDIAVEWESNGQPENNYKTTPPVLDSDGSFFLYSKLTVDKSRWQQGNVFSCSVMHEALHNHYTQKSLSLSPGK
light: DIQMTQSPSSLSASVGDRVTITCRASQDVSPAVAWYQQKPGKAPKLLIYWASTRHTGVPSRFSGSGSGTDFTLTISSLQPEDFATYYCQQHYSTPWTFGQGTKVEIKRTVAAPSVFIFPPSDEQLKSGTASVVCLLNNFYPREAKVQWKVDNALQSGNSQESVTEQDSKDSTYSLSSTLTLSKADYEKHKVYACEVTHQGLSSPVTKSFNRGEC
notes: as for B5
B8: 29A8_VH4-VL1.M1 (antibody, human IgG1, kappa, N297A)
heavy: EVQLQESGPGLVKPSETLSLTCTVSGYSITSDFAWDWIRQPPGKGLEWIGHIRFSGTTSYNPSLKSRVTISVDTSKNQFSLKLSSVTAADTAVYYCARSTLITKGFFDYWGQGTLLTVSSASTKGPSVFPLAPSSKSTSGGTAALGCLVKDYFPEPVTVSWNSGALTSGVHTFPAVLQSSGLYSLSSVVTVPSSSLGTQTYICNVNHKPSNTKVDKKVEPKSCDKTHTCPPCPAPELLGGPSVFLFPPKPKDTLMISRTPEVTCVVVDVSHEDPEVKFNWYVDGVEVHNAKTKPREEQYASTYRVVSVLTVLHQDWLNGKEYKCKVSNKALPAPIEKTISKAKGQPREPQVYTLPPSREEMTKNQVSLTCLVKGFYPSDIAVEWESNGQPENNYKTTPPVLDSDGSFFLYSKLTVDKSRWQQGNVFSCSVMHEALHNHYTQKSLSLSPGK
light: B7 light
notes: as for B5
B9: 29A8_VH5-VL1.M1 (antibody, human IgG1, kappa, N297A, V domains shown)
VH: EVQLQESGPGLVKPSETLSLTCTVSGYSITSDFAWDWIRQPPGKGLEWIGHIRFSGTTSYNPSLKSRVTISRDTSKNQFSLKLSSVTAADTAVYYCARSTLITKGFFDYWGQGTLVTVSS
VL: DIQMTQSPSSLSASVGDRVTITCRASQDVSPAVAWYQQKPGKAPKLLIYWASTRHTGVPSRFSGSGSGTDFTLTISSLQPEDFATYYCQQHYSTPWTFGQGTKVEIKR
notes: as for B5

Biological target: T1, human PD-L1 expressed on CHO-K1 cells (Genscript, Cat #M00543) (human, UniProt Q9NZQ7 19-290)
Assay: cell-based or functional assay

T1 sequence (Q9NZQ7 19-290, one chain of several): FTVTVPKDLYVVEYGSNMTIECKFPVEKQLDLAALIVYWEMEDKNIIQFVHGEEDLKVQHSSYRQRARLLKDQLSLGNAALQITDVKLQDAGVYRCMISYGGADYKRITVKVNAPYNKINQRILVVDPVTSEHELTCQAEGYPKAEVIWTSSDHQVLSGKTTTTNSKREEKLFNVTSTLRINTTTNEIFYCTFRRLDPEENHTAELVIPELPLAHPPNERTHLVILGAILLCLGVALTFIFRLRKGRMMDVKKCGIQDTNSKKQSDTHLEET

EC50, PD-L1 cell-based luciferase reporter assay [nM]	Binder
3.61	B1
3.62	B2
8.69	B3

Biological target: T1, human PD-L1 expressed on CHO-K1 cells …
Assay: cell-based or functional assay
Remark: another data set of the same source

EC50, PD-L1 cell-based luciferase reporter assay [nM]	Binder
1.34	B4
2.26	B5
1.98	B6
2.01	B7
1.24	B8
1.81	B9

Biological target: T1, human PD-L1 expressed on CHO-K1 cells …
Assay: FACS, CHO-K1/human PD-L1 cells
Experimental: (§1) PD-L1 stable cell line binding activity assessment of 12 mouse mAbs was carried out using FACS. CHO-K1 cells expressing human PD-L1 (Genscript, Cat #M00543) were dissociated from adherent culture flasks and mixed with varying concentrations of antibodies. The antibody and cells were incubated for 30 minutes at room temperature, washed three times with FACS buffer (PBS containing 1% BSA). PE-labeled goat anti-mouse IgG (minimal x-reactivity) secondary antibody (BioLegend, Cat #405307) was added and incubated at room temperature for 15 minutes. Cells were washed again with FACS buffer and analyzed by FACSCalibur (BD Bioscience, San Jose, Calif.) and Flowjo software. Data were analyzed with Prism 6 (GraphPad Software, San Diego, Calif.) using non-linear regression, and EC₅₀ values were calculated (FIGS. 2A-2L and Table 3).

EC50 [nM]	Top (best-fit value)	Binder
3.06	2440	B1
4.19	1770	B2
2.13	1720	B3

Biological target: T1, human PD-L1 expressed on CHO-K1 cells …
Assay: FACS, CHO-K1/human PD-L1 cells
Remark: another data set of the same source
Experimental: as §1
Human and cynomolgus PD-L1 stable cell line binding activity assessment of chimeric and humanized mAbs was carried out using FACS as described above (FIGS. 9A-9L and FIGS. 10A-10L and Tables 13 and 14).

EC50 [nM]	Top (best-fit value)	Binder
1.08	6410	B4
2	6410	B5
1.79	6230	B6
1.75	6400	B7
1.05	5180	B8
1.31	5100	B9

Biological target: T2, cynomolgus PD-L1 overexpressing stable cell line (cynomolgus, UniProt G7PSE7 19-290)
T2 construct: also called cynomolgus PD-L1 overexpressing cell line
Assay: FACS, cynomolgus PD-L1 cell line

T2 sequence (G7PSE7 entry or part of it limits assumed): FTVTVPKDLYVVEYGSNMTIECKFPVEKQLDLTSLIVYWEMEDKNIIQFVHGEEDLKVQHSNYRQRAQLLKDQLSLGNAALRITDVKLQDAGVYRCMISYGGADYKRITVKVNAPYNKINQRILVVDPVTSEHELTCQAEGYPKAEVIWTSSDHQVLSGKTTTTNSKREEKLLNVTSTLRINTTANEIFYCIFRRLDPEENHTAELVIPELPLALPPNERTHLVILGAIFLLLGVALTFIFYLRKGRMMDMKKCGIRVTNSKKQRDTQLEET

EC50 [nM]	Top (best-fit value)	Binder
2.77	8670	B4
4.66	8310	B5
2.88	8490	B6
3.53	7470	B7
1.49	7820	B8
3.07	7950	B9

Biological target: T3, His-tagged PD-L1 ECD protein (ACROBiosystems) (human, UniProt Q9NZQ7 19-238)
T3 construct: Bought protein; also called PD-L1-His; PD-L1/His; not shown: His tag
Assay: SPR, mAb captured via anti-Fc, PD-L1-His analyte
Experimental: (§2) Briefly, capturing antibody (anti-mouse Fc antibody for the affinity measurement of mouse mAbs, or anti-human Fc antibody for the affinity measurement of chimeric and humanized mAbs, GE healthcare) was immobilized on a Biacore™ CM5 chip to approximately 7,000 RU using EDC-activated amine coupling chemistry. Antibody of interest (5 μg/ml) was captured for 60 seconds onto the sensorchip surface. His-tagged PD-L1 ECD protein (ACROBiosystems) was flowed over the sensorchip surface at a series concentrations. Flow rate was 30 μl/min in all experiments. Association and dissociation phases were 5 and 15 min, respectively. The chip was regenerated using Glycine/HCl pH 1.5. Captured antibody and antigen were removed between each cycle using 50 mM HCl in order to ensure a fresh binding surface for each concentration of antigen. The resulting sensorgrams were fit globally using a 1:1 binding model in order to calculate on- and off-rates (ka and kd, respectively), as well as affinities (KD).

T3 sequence (Q9NZQ7 19-238): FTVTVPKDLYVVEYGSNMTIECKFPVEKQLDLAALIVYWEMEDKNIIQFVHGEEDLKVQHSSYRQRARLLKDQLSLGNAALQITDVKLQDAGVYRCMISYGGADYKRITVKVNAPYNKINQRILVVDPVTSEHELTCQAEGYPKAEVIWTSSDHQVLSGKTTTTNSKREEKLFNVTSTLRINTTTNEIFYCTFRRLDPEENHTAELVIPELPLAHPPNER

Kd [nM]	koff [s⁻¹]	kon [M⁻¹ s⁻¹]	Binder
0.28	0.00017	620000	B1

Biological target: T3, His-tagged PD-L1 ECD protein …
Assay: SPR, supernatant IgG captured, PD-L1-His analyte

Kd [nM]	koff [s⁻¹]	kon [M⁻¹ s⁻¹]	Binder
0.32	0.00017	530000	B4
0.75	0.00019	260000	B6

Biological target: T3, His-tagged PD-L1 ECD protein …
Assay: SPR, supernatant IgG captured, PD-L1-His analyte
Remark: another data set of the same source

Kd [nM]	koff [s⁻¹]	kon [M⁻¹ s⁻¹]	Binder
0.25	0.00015	580000	B4
1.5	0.00071	470000	B7
1.1	0.00063	560000	B8
0.76	0.00042	550000	B9

Biological target: T3, His-tagged PD-L1 ECD protein …
Assay: SPR, supernatant IgG captured, PD-L1-His analyte
Remark: another data set of the same source

Kd [nM]	koff [s⁻¹]	kon [M⁻¹ s⁻¹]	Binder
0.49	0.00015	300000	B5
0.72	0.00018	250000	B6

Biological target: cynomolgus PD-L1 Fc-fusion protein (cynomolgus, UniProt G7PSE7 19-238)
Assay: SPR, cyno PD-L1-Fc immobilised, antibody analyte

cynomolgus PD-L1 Fc-fusion protein, sequence (G7PSE7 entry or part of it limits assumed): as the sequence (Q9NZQ7 19-238) above, with A33T, A34S, S62N, R68Q, Q82R, F173L, T185A, T192I, H215L counted along it

Kd [nM]	koff [s⁻¹]	kon [M⁻¹ s⁻¹]	Binder
0.48	7.3e-05	150000	B4
0.71	6.8e-05	95000	B5
1.1	9.5e-05	87000	B6
4	0.00043	110000	B7
3.3	0.00044	130000	B8
0.98	0.0002	200000	B9

Biological target: T3, His-tagged PD-L1 ECD protein …
Assay: SPR, IgG captured by anti-human Fc, PD-L1-His analyte
Experimental: as §2

Kd [nM]	koff [s⁻¹]	kon [M⁻¹ s⁻¹]	Binder
0.3	0.00019	640000	B4
0.55	0.00016	290000	B5
0.78	0.00019	240000	B6
1.4	0.0008	590000	B7
1.1	0.00071	630000	B8
0.74	0.00046	620000	B9

Biological target: T1, human PD-L1 expressed on CHO-K1 cells …
Assay: FACS competition vs biotin-PD-1-Fc on CHO-K1/human PD-L1 cells
Experimental: A series of diluted mouse mAbs (concentration starting from 900 nM, 3 fold dilution, 50 μl per well) were added afterwards. The mixture was incubated at 4° C. for 30 minutes, washed twice with wash buffer, followed by the addition of PEcy5/streptavidin (1 μg/ml, 150 μl/well). The plates were again incubated at 4° C. for 30 minutes before the cells in each well were analyzed by FACSCalibur (BD Bioscience, San Jose, Calif.) and Flowjo software.

IC50 [nM]	Binder
1.41	B1
0.3	B4
0.482	B5
1.28	B2
0.59	B6
1.23	B3
0.463	B7
0.385	B8
0.545	B9
